Measurements taken from paper doi:10.1101/2024.07.19.604271.
Where two headings read alike, the source gives them in different places.

Key:
[1] = biological target: stabilized microtubules polymerized from pig brain tubulin (GMPCPP-stabilized or Taxotere-stabilized) (pig); experiment: TIRF microscopy of fluorescent kinesin on surface-attached microtubules
[2] = biological target: stabilized microtubules polymerized from pig brain tubulin (GMPCPP-stabilized or Taxotere-stabilized) (pig); experiment: as above; remark: listed apart in the source
[3] = biological target: full-length Kip2-Δ70 (S. cerevisiae) (UniProt P28743); experiment: TIRF microscopy, tubulin transport assay

fold lower affinity than bKip2-WT [1] [fold]	fold lower affinity than bKip2-WT [2] [fold]	Substance	fold reduction of tubulin transport events against wild type Kip2 [3] [fold]
2.8	3.5	bKip2-P1 (motor domain P1 mutant, K294R K296R) (from UniProt P28743 1-560) (domain or fragment)	
	1.3	bKip2-Δ70 (from UniProt P28743 71-560) (domain or fragment)	
		free tubulin dimers, ATTO-488-labelled, from pig brain (complex)	3 to 8
